Where “and” joins values, the source holds several entries; their conditions need not be identical. Equal entries are not always repeated.

This note sets out measurements from US20250011456A1, “ANTIBODIES AGAINST CD14 AND USES THEREOF” (Villanelle Life Science Inc, priority 2023, published 2025).

Assay [1] deals with CD14 positive recurrent bladder cancer patient-derived xenograft (PDX). Briefly: Anti-CD14 IgG1/IgG4 with or without cisplatin, tumor treatment in PDX mice (tumor length, width, volume, tumor weight; Example 6). The assay is classed as in vivo. The conditions noted are these: for Tumor Length / Tumor Volume / Tumor Width: IgG4 5 mg/kg i.v. (Ex. 2), PDX mice 1-6. The text has this: After removing the primary tumor tissue from the patient, the tissue was temporarily placed in a complete culture medium containing RPMI1640 (Gibco Roswell Park Memorial Institute 1640 Media)+PS (penicillin and streptomycin)+10% FBS (Fetal bovine serum). The tissue was then transported to a sterile operating room within an SPF-grade (Specific Pathogen Free) animal facility. The tumor tissue was cut to an appropriate size (5 millimeters (mm) in diameter). Severely immunodeficient NSG (NOD scid gamma mouse) mice were anesthetized using an isoflurane respirator. The tumor was transplanted subcutaneously into the right rib area through surgery. When the tumor volume reached 1 cm^3, it was passaged following the same procedure, and after expanding for three generations, the tumor became stable for use in formal experiments. During the experiment, passaging and expansion were performed as needed. When the tumor volume reached 100 mm^3, the mice were divided into groups according to the experimental requirements and treated with drugs.
The IgG4 tested is the original version of Atibuclimab.
Drug administration on the PDX mice was performed intravenously.

In assay [2] the target is T1, human CD14 antigen (B294801, histidine tagged) (Homo sapiens, UniProt P08571).
T1 construct: His; purchased Shanghai BaiYing Biotechnology Co., Ltd B294801 (Batch number 20200518A22)
T1 sequence (P08571 20-345): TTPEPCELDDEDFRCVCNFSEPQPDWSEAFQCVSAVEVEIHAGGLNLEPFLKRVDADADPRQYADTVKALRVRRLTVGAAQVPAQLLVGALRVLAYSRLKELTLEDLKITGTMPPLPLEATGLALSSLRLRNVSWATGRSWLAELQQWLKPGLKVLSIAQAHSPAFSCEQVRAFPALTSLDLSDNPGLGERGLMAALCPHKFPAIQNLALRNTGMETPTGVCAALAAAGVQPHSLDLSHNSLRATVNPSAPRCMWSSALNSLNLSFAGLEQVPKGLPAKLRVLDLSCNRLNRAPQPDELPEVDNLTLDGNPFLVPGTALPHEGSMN
Briefly: Biacore 8K kinetic and affinity test of antibodies without PTM sites (Example 9). The assay is classed as binding. The following applies: for Koff / kon (1:1 binding): Biacore 8K, analyte B294801 0.1953125-25 nM, capture conc. 1 μg/mL. How it is done:
Experimental reagents and consumables included cell culture fluid, electroporation buffer, CHO cells, 1 mL electroporation cuvette, Protein A chip (Cytiva, 29127556), various sizes of shake flasks, and various sizes of pipettes. Main instruments and equipment included a shaker (Taicang Huamei), centrifuge (Baiyang), ultrapure water system (Millipore), constant temperature incubator (BLUE PARD), electroporator, water bath, Biacore 8K (Cytiva), and ELISA system (Molecular Devices).
The antigen used for the binding affinity measurements is B294801. This antigen is a human CD14 antigen that is histidine tagged. D6DD3D001 is a mouse antibody, and MPDDAD001-MPDDAD005 are humanized antibodies. The antibodies are recombinant, human (hFc Tag). Selected parameters of the experimental samples are shown in Table 9-1, with MW referring to molecular weight in kDa.
The Biacore 8K platform was used to test the kinetic and affinity properties of the antibody, operating according to system instructions and indications.
Results of Affinity Detection. The affinity of the six antibodies was measured at saturation concentration. For the experiments, the analyte solution comprises the B294801 antigen with an analyte concentration of 0.1953125 nM, 0.390625 nM, 0.78125 nM, 1.5625 nM, 3.125 nM, 6.25 nM, 12.5 nM, and 25 nM. Change factor is described above.
A general note: Surface plasmon resonance follows binding to a sensor surface in real time, without labels.

B1: IgG4: The IgG4 tested is the original version of Atibuclimab (anti-CD14 antibody) (antibody, V domains shown)
VH: DVQLQQSGPGLVKPSQSLSLTCTVTGYSITSDSAWNWIRQFPGNRLEWMGYISYSGSTSYNPSLKSRISITRDTSKNQFFLQLNSVTTEDTATYYCVRGLRFAYWGQGTLVTVSS
VL: DIVLTQSPASLAVSLGQRATISCRASESVDSYVNSFLHWYQQKPGQPPKLLIYRASNLQSGIPARFSGSGSRTDFTLTINPVEADDVATYYCQQSNEDPYTFGGGTKLEIK
modifications: IgG4 constant regions
For B1, the “Tumor Length” value in assay [1] (Day 0, 5 mg/kg) was 6.27 mm and 8.76 mm and 6.59 mm and 7.42 mm and 6.33 mm and 6.02 mm; in assay [1] (Day 4, 5 mg/kg) it was 6.09 mm and 6.4 mm and 7.29 mm and 6.97 mm and 6.34 mm and 6.38 mm; in assay [1] (Day 7, 5 mg/kg), 7.28 mm and 7.86 mm and 8.67 mm and 6.99 mm and 8.27 mm; in assay [1] (Day 11, 5 mg/kg), 8.11 mm and 8.29 mm and 6.98 mm and 8.22 mm and 7.53 mm and 8.23 mm; in assay [1] (Day 14, 5 mg/kg), 8.23 mm and 8.98 mm and 8.47 mm and 7.26 mm and 9.3 mm and 9.49 mm; in assay [1] (Day 18, 5 mg/kg) it was 8.68 mm and 10.39 mm and 9.13 mm and 9.05 mm and 9.45 mm and 9.95 mm. In addition, the “Tumor Length” value was 10.54 mm and 10.95 mm and 9.73 mm and 10.89 mm and 10.09 mm and 10.17 mm in assay [1] (Day 21, 5 mg/kg); 12.37 mm and 11.71 mm and 10.99 mm and 12.36 mm and 12.63 mm in assay [1] (Day 25, 5 mg/kg); 11.25 mm and 11.92 mm and 12.46 mm and 12.52 mm and 12.24 mm and 12.94 mm in assay [1] (Day 28, 5 mg/kg). Further, the “Tumor Volume” value in assay [1] (Day 0, 5 mg/kg) is 71.87 mm^3 and 99.55 mm^3 and 90.05 mm^3 and 93.23 mm^3 and 102.04 mm^3 and 77.19 mm^3; in assay [1] (Day 4, 5 mg/kg), 113.97 mm^3 and 113.45 mm^3 and 97.29 mm^3 and 124.83 mm^3 and 104.42 mm^3 and 77.89 mm^3; in assay [1] (Day 7, 5 mg/kg), 180.86 mm^3 and 117.78 mm^3 and 198.12 mm^3 and 140.77 mm^3 and 173.66 mm^3 and 136.21 mm^3; in assay [1] (Day 14, 5 mg/kg), 222.04 mm^3 and 307.58 mm^3 and 251.33 mm^3 and 190.45 mm^3 and 320.90 mm^3 and 371.60 mm^3; in assay [1] (Day 18, 5 mg/kg) it was 324.35 mm^3 and 536.16 mm^3 and 383.59 mm^3 and 344.61 mm^3 and 334.97 mm^3 and 363.06 mm^3; in assay [1] (Day 21, 5 mg/kg) it was 450.77 mm^3 and 632.99 mm^3 and 424.46 mm^3 and 505.72 mm^3 and 463.61 mm^3 and 487.44 mm^3. Moreover, the “Tumor Volume” value in assay [1] (Day 25, 5 mg/kg) was 724.64 mm^3 and 746.92 mm^3 and 567.12 mm^3 and 525.64 mm^3 and 639.10 mm^3 and 698.50 mm^3; in assay [1] (Day 28, 5 mg/kg) it was 728.02 mm^3 and 719.55 mm^3 and 840.02 mm^3 and 932.53 mm^3 and 835.40 mm^3 and 919.10 mm^3. Further, the “Tumor Width” value in assay [1] (Day 0, 5 mg/kg) is 4.68 mm and 4.66 mm and 5.11 mm and 4.9 mm and 5.55 mm and 4.95 mm; in assay [1] (Day 4, 5 mg/kg), 5.98 mm and 5.82 mm and 5.05 mm and 5.85 mm and 5.61 mm and 4.83 mm; in assay [1] (Day 7, 5 mg/kg), 6.89 mm and 5.56 mm and 6.94 mm and 5.57 mm and 5.61 mm; in assay [1] (Day 11, 5 mg/kg), 5.81 mm and 7.35 mm and 5.72 mm and 8.04 mm and 7.15 mm and 7.08 mm; in assay [1] (Day 14, 5 mg/kg), 7.18 mm and 8.09 mm and 7.53 mm and 7.08 mm and 8.12 mm and 8.65 mm; in assay [1] (Day 18, 5 mg/kg), 8.45 mm and 9.93 mm and 8.96 mm and 8.53 mm and 8.23 mm and 8.35 mm. For the same molecule, the “Tumor Width” value in assay [1] (Day 21, 5 mg/kg) is 9.04 mm and 10.51 mm and 9.13 mm and 9.42 mm and 9.37 mm and 9.57 mm; in assay [1] (Day 25, 5 mg/kg), 10.58 mm and 11.04 mm and 9.93 mm and 9.56 mm and 9.94 mm and 10.28 mm; in assay [1] (Day 28, 5 mg/kg), 11.12 mm and 10.74 mm and 11.35 mm and 11.93 mm and 11.42 mm and 11.65 mm. Moreover, the “Tumor weight after 28 days” value in assay [1] (IgG4 (5 mg/kg), Ex. 2, per mouse 1-6, 5 mg/kg) is 0.779 grams and 0.769 grams and 0.739 grams and 0.863 grams and 0.852 grams and 0.649 grams. The tumor suppression rate result in assay [1] (single anti-CD14-IgG4 5 mg/kg (Ex. 2), after 28 days) was “about 25%”.

B2: MPDDAD003: D6DD3D014-derived antibody with PTM site removed; VL amino acid nos. 34, 35: TS (antibody, V domains shown)
VH: QLQLQESGPGLVKPSETLSLTCTVSGGSISSDSAWNWIRQPPGKGLEWIGYISYSGSTSYNPSLKSRVTISRDTSKNQFSLKLSSVTAADTAVYYCVRGLRFAYWGQGTLVTVSS
VL: DIQLTQSPSSLSASVGDRVTITCRASESVDSYVTSFLHWYQQKPGKAPKLLIYRASNLQSGVPSRFSGSGSRTDFTLTISSLQPEDVATYYCQQSNEDPYTFGQGTKLEIK
Regarding B2, in assay [2], the Koff was 0.0026 s⁻¹ and the “kon (1:1 binding)” value turned out to be 1.29e+06 M⁻¹ s⁻¹. Moreover, in assay [2] (Biacore, B294801 antigen), the “affinity compared with the humanized antibody D6DD3D014” value was “approximately equivalent to the affinity of the humanized antibody D6DD3D014” and the “affinity compared with the murine antibody D6DD3D001” value was “within three times less than the affinity of the murine antibody D6DD3D001”.

B3: MPDDAD005: D6DD3D014-derived antibody with PTM site removed; VL amino acid nos. 34, 35: QS (antibody, V domains shown)
VH: QLQLQESGPGLVKPSETLSLTCTVSGGSISSDSAWNWIRQPPGKGLEWIGYISYSGSTSYNPSLKSRVTISRDTSKNQFSLKLSSVTAADTAVYYCVRGLRFAYWGQGTLVTVSS
VL: DIQLTQSPSSLSASVGDRVTITCRASESVDSYVQSFLHWYQQKPGKAPKLLIYRASNLQSGVPSRFSGSGSRTDFTLTISSLQPEDVATYYCQQSNEDPYTFGQGTKLEIK
With B3, in assay [2], the Koff came to 0.00544 s⁻¹ and the “kon (1:1 binding)” value turned out to be 1.11e+06 M⁻¹ s⁻¹.

B4: MPDDAD004: D6DD3D014-derived antibody with PTM site removed; VL amino acid nos. 34, 35: NA (antibody, V domains shown)
VH: QLQLQESGPGLVKPSETLSLTCTVSGGSISSDSAWNWIRQPPGKGLEWIGYISYSGSTSYNPSLKSRVTISRDTSKNQFSLKLSSVTAADTAVYYCVRGLRFAYWGQGTLVTVSS
VL: DIQLTQSPSSLSASVGDRVTITCRASESVDSYVNAFLHWYQQKPGKAPKLLIYRASNLQSGVPSRFSGSGSRTDFTLTISSLQPEDVATYYCQQSNEDPYTFGQGTKLEIK
For the molecule B4, in assay [2], the Koff was determined as 0.0046 s⁻¹ and the “kon (1:1 binding)” value turned out to be 775000 M⁻¹ s⁻¹.

B5: MPDDAD002: D6DD3D014-derived antibody with PTM site removed; VL amino acid nos. 34, 35: SS (antibody, V domains shown)
VH: QLQLQESGPGLVKPSETLSLTCTVSGGSISSDSAWNWIRQPPGKGLEWIGYISYSGSTSYNPSLKSRVTISRDTSKNQFSLKLSSVTAADTAVYYCVRGLRFAYWGQGTLVTVSS
VL: DIQLTQSPSSLSASVGDRVTITCRASESVDSYVSSFLHWYQQKPGKAPKLLIYRASNLQSGVPSRFSGSGSRTDFTLTISSLQPEDVATYYCQQSNEDPYTFGQGTKLEIK
B5: in assay [2], the Koff is 0.00362 s⁻¹ and the “kon (1:1 binding)” value worked out at 1.29e+06 M⁻¹ s⁻¹.

B6: MPDDAD001: D6DD3D014-derived antibody with PTM site removed; VL amino acid nos. 34, 35: DS (antibody, V domains shown)
VH: QLQLQESGPGLVKPSETLSLTCTVSGGSISSDSAWNWIRQPPGKGLEWIGYISYSGSTSYNPSLKSRVTISRDTSKNQFSLKLSSVTAADTAVYYCVRGLRFAYWGQGTLVTVSS
VL: DIQLTQSPSSLSASVGDRVTITCRASESVDSYVDSFLHWYQQKPGKAPKLLIYRASNLQSGVPSRFSGSGSRTDFTLTISSLQPEDVATYYCQQSNEDPYTFGQGTKLEIK
In the case of B6, in assay [2], the Koff turned out to be 0.00633 s⁻¹ and the “kon (1:1 binding)” value worked out at 847000 M⁻¹ s⁻¹.
